Experimental data published in patent US10357549B2, “Pigment epithelium-derived factor (PEDF) and peptide derivatives thereof for use in osteoblast differentiation and bone growth” (Yale University, priority 2014, dated 2019).

How the values were obtained:
[1] = test system: MSCs derived from stromovascular cells (SVCs); assay: Adipogenic differentiation of murine MSCs derived from stromovascular cells (Oil Red O, qRT-PCR); assay type: cell-based, mouse
Experimental: (§1) Subcutaneous fat pads were dissected from WT and PEDF-KO mice and digested in HBSS medium containing 3% BSA (American Bioanalytical, Natick, Mass., USA), 0.8 mg/ml of type 2 collagenase (Worthington Biochemical Corp., Lakewood, N.J., USA), 1.2 mM CaCl2, and 1.0 mM MgCl2 for 1 h and 15 min in a shaking 37° C. water bath. Stromovascular fractions (SVFs) were obtained after centrifugation at 300 g for 5 min. Cells were initially plated in proliferation medium (DMEM plus 10% FBS and bFGF; 1 ng/ml) until 70-80% confluence. Adipogenic differentiation was initiated with differentiation medium (5 μg/ml insulin, 10 nM dexamethasone, 0.5 mM IBMX, and 1 μM rosiglitazone) and added on d 0 for 72 h. Afterward, cells were maintained in DMEM with 10% FBS and 5 μg/ml insulin for an additional 5 d until full differentiation as confirmed by light microscopy and Oil Red O staining. Osteoblast differentiation cocktail (10 nM dexamethasone, 50 μg/ml ascorbic acid, and 10 mM β-glycerophosphate) was used for 21 d.
(§2) RNA was isolated and processed using the RNAEasy mini kit (Qiagen, Valencia, Calif., USA). Primer probe sets were obtained from a commercial source (Applied Biosystems, Foster City, Calif., USA), and qRT-PCR was performed on a TaqMan ABI 7500 system (Applied Biosystems) as described previously (Schmitz et al., 2011, Am J Pathol, 179: 2990-2999). Target gene expression was normalized against 18S ribosomal RNA using the ΔΔCt method. On sorted adipose populations, qRT-PCR was performed on a Roche Lightcycler 480 (Roche, Basel, Switzerland) using a SYBR FAST qPCR kit (Kapa Biosystems, Woburn, Mass., USA; KK4611), and target gene expression was normalized to TBK1.
(§3) For Oil Red O staining, cells were washed in PBS and fixed in 10% formalin for 20 min. Cells were then stained with 0.5% Oil Red O for 15 min. For Alizarin Red staining, cells were washed in PBS and fixed in 10% formalin for 20 min. After being washed twice in ddH2O, cells were stained in 2% Alizarin Red S (pH 4.1). Cells were washed ≥3 times in ddH2O, and images were acquired with a Zeiss Axiophot microscope (Carl Zeiss, Oberkochen, Germany). Representative images are shown at ×40 view.

hMSCs [2] = assay: Adipogenic differentiation of human MSCs; assay type: cell-based; conditions: PEDF started on day 0, adipogenic medium 10 days
Experimental: (§4) Adipose-derived hMSCs [American Type Culture Collection (ATCC), Manasses, Va., USA; PCS-500-011) were propagated in MSC basal medium supplemented with MSC growth kit (ATCC). Cells were CD29, CD44, CD105, and CD166 positive and negative for CD 31, CD34, and CD45. Interrogation of Wnt-β-catenin signaling was done in ATCC MSC basal medium with 2% FBS. PEDF (500 ng/ml) was added for 6 h. Passage 2 and 3 hMSCs were used for Wnt signaling experiments. For adipocyte conversion, cells (5000 cells/cm^2) were placed in adipocyte differentiation medium (ATCC; PCS-500-050) for 9-10 d. For osteoblast differentiation, cells (5000 cells/cm^2) were differentiated in osteoblast differentiation medium (ATCC; PCS-500-052) for 10-21 d. Alkaline phosphatase kit (Sigma) was used to stain osteoblasts.
RNA was isolated and processed using the RNAEasy mini kit (Qiagen, Valencia, Calif., USA). Primer probe sets were obtained from a commercial source (Applied Biosystems, Foster City, Calif., USA), and qRT-PCR was performed on a TaqMan ABI 7500 system (Applied Biosystems) as described previously (Schmitz et al., 2011, Am J Pathol, 179: 2990-2999). Target gene expression was normalized against 18S ribosomal RNA using the ΔΔCt method. […]

SVCs from PEDF KO mice = assay: Osteoblast differentiation and mineralization of PEDF KO SVCs (Alizarin Red, qRT-PCR); assay type: cell-based, mouse
Experimental: as §1, §2, §3

hMSCs [3] = assay: Osteoblast differentiation of hMSCs (alkaline phosphatase); assay type: cell-based, human; conditions: PEDF added to hMSCs
Experimental: as §4
Immunoblotting was performed as described previously (Schmitz et al., 2011, Am J Pathol, 179: 2990-2999). Proteins were separated by 10% SDS-PAGE on gradient gels (Bio-Rad, Hercules, Calif., USA). Antibodies against nonphosphorylated β-catenin, total β-catenin, phospho-LRP6 (serine 1490), total LRP6 (Cell Signaling Technologies, Danvers, Mass., USA), and alkaline phosphatase (Developmental Studies Hybridoma Bank, University of Iowa, Iowa City, Iowa, USA). […]

[4] = test system: Wnt cell surface receptor LRP6; assay: Canonical Wnt-β-catenin signaling in hMSCs (immunoblot of phospho-LRP6 and active β-catenin); assay type: cell-based, human
Experimental: The inhibitor of Wnt production (IWP-2; Tocris Bioscience, Minneapolis, Minn., USA; 2 μM×24-48 h) was used to block production of endogenous Wnt proteins (Chen et al., 2009, Nat Chem Biol, 5: 100-107; Clevers et al., 2012, Cell, 149: 1192-1205). All other chemicals, unless indicated, were purchased from Sigma (St. Louis, Mo., USA).
as §4
(§5) Immunoblotting was performed as described previously (Schmitz et al., 2011, Am J Pathol, 179: 2990-2999). Proteins were separated by 10% SDS-PAGE on gradient gels (Bio-Rad, Hercules, Calif., USA). Antibodies against nonphosphorylated β-catenin, total β-catenin, phospho-LRP6 (serine 1490), total LRP6 (Cell Signaling Technologies, Danvers, Mass., USA), and alkaline phosphatase (Developmental Studies Hybridoma Bank, University of Iowa, Iowa City, Iowa, USA). To assess signaling through the Wnt coreceptor LRP6, 3T3 adipocyte precursors with vector and LRP6-KO shRNA were used (Liu et al., 2012, J Biol Chem, 287: 7213-7223). On confluence, cells were serum starved for 48 h, and then changed to DMEM with 10% FCS (d 0). PEDF (10 nM) was added on d 0, and cells were harvested after 48 h. Knockdown was confirmed by immunoblotting for total LRP6. β-actin (Sigma) was used as a loading control.

[5] = test system: 3T3-L1 adipocyte precursors; assay: PPARγ expression in 3T3-L1 adipocyte precursors with vector or LRP6 shRNA; assay type: cell-based, mouse; conditions: PEDF 10 nM, 48 h
Experimental: as §5

femurs in PEDF KO mice = assay: Biomechanical testing of femurs of vehicle and PEDF treated PEDF KO mice; assay type: in vivo, mouse; conditions: versus vehicle
Excerpt: Further experiments were done to compare the biomechanical properties of PEDF-treated and vehicle-treated bones. […] Femur length was not different between vehicle or PEDF-treated groups. PEDF increased bone stiffness, the slope of the load applied to the bone vs displacement of bone. Maximum load was not different in PEDF-treated mice. The deformation of bone after the yield point, a measure of bone ductility increased after PEDF treatment. Displacement of femurs at maximum load and at fracture (Fx) point increased after PEDF treatment, indicating bones that are less brittle with force applied.

[6] = PEDF started on day 3, both WT and KO SVCs
[7] = osteoblast differentiation, KO SVCs, day 21
[8] = PEDF 500 ng/ml added to IWP-2-treated hMSCs

B1: Pigment epithelium-derived factor (protein)
chain: QNPASPPEEGSPDPDSTGALVEEEDPFFKVPVNKLAAAVSNFGYDLYRVRSSTSPTTNVLLSPLSVATALSALSLGAEQRTESIIHRALYYDLISSPDIHGTYKELLDTVTAPQKNLKSASRIVFEKKLRIKSSFVAPLEKSYGTRPRVLTGNPRLDLQEINNWVQAQMKGKLARSTKEIPDEISILLLGVAHFKGQWVTKFDSRKTSLEDFYLDEERTVRVPMMSDPKAVLRYGLDSDLSCKIAQLPLTGSMSIIFFLPLKVTQNLTLIEESLTSEFIHDIDRELKTVQAVLTVPKLKLSYEGEVTKSLQEMKLQSLFDSPDFSKITGKPIKLTQVEHRAGFEWNEDGAGTTPSPGLQPAHLTFPLDYHLNQPFIFVLRDTDTGALLFIGKILDPRGP
notes: Full-length recombinant human PEDF generated in HEK cells; 50-kDa secreted protein of the SERPIN superfamily
For B1, the “PPARγ suppression, day 1 versus day 3 start” value ([1]; PEDF 500 ng/ml) was “greater when PEDF was started on day 1 compared with day 3”, the “adipogenesis (Oil Red O staining)” value ([1]; PEDF 500 ng/ml added on day 1 or day 3, assessed day 8) was “significantly inhibited adipogenesis” and the “expression of PPARγ, PGC1α, CEBPα and adipocyte marker ADIPOQ” value ([1]; PEDF 500 ng/ml started on day 1 or day 3) was “suppression”. For the same molecule, the “inhibition of PGC1α expression” value [1, 6] was ~50%, the “inhibition of PPARγ expression” value [1, 6] was ~50% and the “suppression of PPARγ, adiponectin, and other adipocyte markers” value ([1]; compared with control-treated cells, P<0.001) was ~90%. For the same molecule, the “adipogenesis of hMSCs” value (hMSCs [2]) was “inhibits adipogenesis”, the “proadipogenic transcription factors in hMSCs” value (hMSCs [2]) was “inhibited proadipogenic transcription factors” and the “Alizarin Red staining (mineralization)” value (SVCs from PEDF KO mice; PEDF treatment for 21 days, KO SVCs, versus vehicle-treated cells) was “increased Alizarin Red staining”. For the same molecule, the “Collagen Ia expression” value (SVCs from PEDF KO mice; day 21 of differentiation) was “not different”, the Runx2 expression (SVCs from PEDF KO mice; day 21 of differentiation) was “did not affect” and the Sp7 expression (SVCs from PEDF KO mice; day 21 of differentiation) was “did not affect”. For the same molecule, the “reduction of PPARγ expression” value (SVCs from PEDF KO mice; [7]) was ~80%, the “transforming growth factor β (TGF-β) expression” value (SVCs from PEDF KO mice; [7]) was “reduced the expression” and the “alkaline phosphatase by staining and protein levels” value (hMSCs [3]) was “increased alkaline phosphatase”. For the same molecule, the “LRP6 phosphorylation in IWP-2-treated cells” value [4, 8] was “led to LRP6 phosphorylation”, the “active β-catenin in IWP-2-treated cells” value [4, 8] was “enhanced levels of active β-catenin” and the LRP6 phosphorylation ([4]; hMSCs, Wnt3a 50 ng/ml, PEDF 500 ng/ml) was “increased LRP6 phosphorylation”. The “active β-catenin levels” value ([4]; medium conditions where endogenous Wnt proteins would be present) was “only minimal effects”, the “PPARγ expression in cells with LRP6 knockdown” value [5] was “induced PPARγ expression” and the “PPARγ expression in control (vector) cells” value [5] was “significantly inhibited PPARγ expression”. For the same molecule, the “bone stiffness (slope of load vs displacement)” value (femurs in PEDF KO mice) was “increased”, the “deformation of bone after the yield point (bone ductility)” value (femurs in PEDF KO mice) was “increased” and the “displacement of femurs at fracture (Fx) point” value (femurs in PEDF KO mice) was “increased”. The “displacement of femurs at maximum load” value (femurs in PEDF KO mice) was “increased”, the femur length (femurs in PEDF KO mice) was “not different” and the flexibility of femurs (femurs in PEDF KO mice) was “enhances the flexibility”. The maximum load (femurs in PEDF KO mice) was “not different”.
